B1: A2-6C10 (antibody, V domains shown)
VH: QVQLKESGPGLVAPSQSLSITCTISGFSLTTYGVHWVRQPPGKGLEWLVVIWSDGSTTYNSALKSRLNITKDNSKSQVFLKMNSLQTDDTAMYYCVRHGGLLRRDAMDYWGQGTSVTVSS
VL: QIVLTQSPAIMSASLGERVTMTCTASSSVSSNSFHWYQQKPGSSPKLWLYSTSNLASGVPARFSGSGSGTSYSLTISSMEAEDAATYYCHQYLRSPPTFGGGTKLEIK
notes: mouse hybridoma antibody
B2: A2-8H11 (antibody, V domains shown)
VH: B1 VH
VL: B1 VL
notes: mouse hybridoma antibody
B3: A2-9A11 (antibody, V domains shown)
VH: B1 VH
VL: B1 VL
notes: mouse hybridoma antibody

Legend:
[1] = molecular target: T1, purified recombinant human α5β1 integrin heterodimer, 6×His tagged (rh-α5β1); Acro Biosystems, cat. no. … (human, UniProt P08648 42-995; P05556 21-728); experiment: BLI (Octet), supernatant mAb on anti-mouse IgG Fc sensor, 20 nM rh-α5β1
T1 construct: bought recombinant heterodimer; also called rh-α5β1-6×His tagged protein; His-tagged-α5β1
T1 sequence (P08648 42-995 limits assumed, form in doubt, chain 1 of 2): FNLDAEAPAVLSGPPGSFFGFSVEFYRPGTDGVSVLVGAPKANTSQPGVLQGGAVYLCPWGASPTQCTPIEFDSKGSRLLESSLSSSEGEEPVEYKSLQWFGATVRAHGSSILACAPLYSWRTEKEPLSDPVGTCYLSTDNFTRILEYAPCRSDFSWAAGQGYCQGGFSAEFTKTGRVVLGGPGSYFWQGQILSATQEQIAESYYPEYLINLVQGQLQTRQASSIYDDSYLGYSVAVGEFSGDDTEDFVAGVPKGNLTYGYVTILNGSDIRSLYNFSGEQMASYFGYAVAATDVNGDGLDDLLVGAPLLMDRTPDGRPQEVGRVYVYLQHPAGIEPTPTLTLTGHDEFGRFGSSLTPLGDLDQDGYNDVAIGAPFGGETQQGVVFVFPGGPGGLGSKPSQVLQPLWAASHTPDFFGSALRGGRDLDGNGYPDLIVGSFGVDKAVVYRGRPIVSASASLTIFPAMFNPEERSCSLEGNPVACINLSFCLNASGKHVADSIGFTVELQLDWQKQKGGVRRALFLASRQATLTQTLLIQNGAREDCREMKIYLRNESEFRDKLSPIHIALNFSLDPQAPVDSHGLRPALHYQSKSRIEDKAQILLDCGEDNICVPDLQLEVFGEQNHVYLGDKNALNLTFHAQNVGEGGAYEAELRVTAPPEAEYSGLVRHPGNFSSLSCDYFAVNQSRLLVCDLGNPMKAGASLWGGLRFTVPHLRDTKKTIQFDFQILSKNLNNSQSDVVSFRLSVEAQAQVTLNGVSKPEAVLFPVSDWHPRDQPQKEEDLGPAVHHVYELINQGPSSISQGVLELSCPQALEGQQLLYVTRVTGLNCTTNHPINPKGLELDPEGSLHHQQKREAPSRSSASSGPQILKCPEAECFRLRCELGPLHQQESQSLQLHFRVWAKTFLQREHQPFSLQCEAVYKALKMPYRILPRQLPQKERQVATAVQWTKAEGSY
T1 sequence (P05556 21-728 limits assumed, form in doubt, chain 2 of 2): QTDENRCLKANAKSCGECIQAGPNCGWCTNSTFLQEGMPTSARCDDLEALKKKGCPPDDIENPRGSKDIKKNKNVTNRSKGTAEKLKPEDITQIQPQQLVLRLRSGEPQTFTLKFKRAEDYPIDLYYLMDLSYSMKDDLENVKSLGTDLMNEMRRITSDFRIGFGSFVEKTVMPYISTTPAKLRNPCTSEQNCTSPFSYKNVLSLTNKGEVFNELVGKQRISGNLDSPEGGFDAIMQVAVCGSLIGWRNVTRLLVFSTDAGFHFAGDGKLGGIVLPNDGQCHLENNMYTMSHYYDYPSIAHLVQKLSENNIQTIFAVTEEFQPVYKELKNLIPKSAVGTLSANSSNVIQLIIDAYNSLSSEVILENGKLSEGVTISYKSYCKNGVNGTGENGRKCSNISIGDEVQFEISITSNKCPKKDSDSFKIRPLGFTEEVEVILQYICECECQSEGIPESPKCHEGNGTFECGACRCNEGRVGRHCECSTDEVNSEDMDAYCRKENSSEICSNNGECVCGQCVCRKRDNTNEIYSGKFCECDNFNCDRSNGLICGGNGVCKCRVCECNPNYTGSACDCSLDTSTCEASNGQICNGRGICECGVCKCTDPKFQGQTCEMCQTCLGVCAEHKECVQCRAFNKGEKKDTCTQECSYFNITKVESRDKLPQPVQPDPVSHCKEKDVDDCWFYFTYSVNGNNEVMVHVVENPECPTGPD
From the text: Anti-Mouse IgG Fc biosensors were used to load each clone supernatant. Assay steps were as follows: Sensor Check (30s)-->Load Ab (700s)-->Quench (480s)-->Baseline(480s)-->Ab Assoc. (600s)-->Dissoc. (600s).

[2] = molecular target: T2, recombinant human α5β1 integrin (rh-α5β1; R&D Systems, cat. no. 3230-A5) (human, UniProt P08648 42-995; P05556 21-728); experiment: ELISA, coated rh-α5β1, supernatant 1:10
T2 construct: bought recombinant heterodimer
T2 sequence (P08648 42-995 limits assumed, form in doubt, chain 1 of 2): as the sequence (P08648 42-995 limits assumed, form in doubt, chain 1 of 2) above
T2 sequence (P05556 21-728 limits assumed, form in doubt, chain 2 of 2): as the sequence (P05556 21-728 limits assumed, form in doubt, chain 2 of 2) above
Description: Plates were washed 3 times with Wash Buffer (1× Tris Buffered Saline containing 0.05% Tween20), blocked with 2% BSA in 1×TBS (made from 10× Thermo Scientific Blocker BSA (10×) in TBS; Thermo Fisher Scientific, Waltham, MA, cat. no. 37520) for 2 hours at room temperature (RT) then incubated with hybridoma supernatants diluted 1:10 with Standard Diluent (2% BSA, 1×TBS, 0.05% Tween20). […] Absorbance 450 nm was measured.

Row | Binder | Kd [1] | koff [1] | kon [1] | Absorbance 450 nm [2]
1 | B1 | 3.5 nM | 0.000911 s⁻¹ | 260000 M⁻¹ s⁻¹ | 2.01
2 | B2 | 4.81 nM | 0.00139 s⁻¹ | 289000 M⁻¹ s⁻¹ | 1.45
3 | B3 | 5.02 nM | 0.00139 s⁻¹ | 277000 M⁻¹ s⁻¹ | 1.91

Source: US20240279345A1, “ALPHA 5 BETA 1 INTEGRIN BINDING AGENTS AND USES THEREOF” (PASITHEA THERAPEUTICS CORP., priority 2021, published 2024)
